Here are results for 9 molecules from patent US20150344570A1 (published 2015).

Assay [1] deals with T1, FcγRIa (human, UniProt P12314 16-292).
T1 construct: extracellular domain; Soluble extracellular domain with C-terminal His tag, expressed in FreeStyle293 cells; analyte in Biacore; also called FcgRI; CD64; not shown: His tag attached to the C terminus
Briefly: SPR (Biacore), antibody captured on antigen-peptide chip, FcγRIa as analyte; binding activity relative to control GpH7-B3/GpL16-k0 (HoCon Ab) x100. The method, then:
(§1) Analysis of interaction between objective antibody and the FcγR was carried out using Biacore T100 (GE Healthcare). HBS-EP+ (GE Healthcare) was used as the running buffer, and the measurement temperature was set to 25° C. Chips produced by immobilizing the antigen peptide by the amine coupling method to a Series S Sencor Chip CM5 (GE Healthcare), or alternatively, chips produced by allowing preliminarily biotinylated antigen peptides to interact with and immobilize onto a Series S Sensor Chip SA (certified) (GE Healthcare) were used. Antibodies of interest were captured onto an antigen peptide-immobilized chip, and allowed to interact to each FcγR diluted with running buffer. To regenerate and repeatedly use the chip, the antibodies captured on the chip were washed off by reacting 10 mM glycine-HCl, pH 1.5.
T1 sequence (P12314 16-292): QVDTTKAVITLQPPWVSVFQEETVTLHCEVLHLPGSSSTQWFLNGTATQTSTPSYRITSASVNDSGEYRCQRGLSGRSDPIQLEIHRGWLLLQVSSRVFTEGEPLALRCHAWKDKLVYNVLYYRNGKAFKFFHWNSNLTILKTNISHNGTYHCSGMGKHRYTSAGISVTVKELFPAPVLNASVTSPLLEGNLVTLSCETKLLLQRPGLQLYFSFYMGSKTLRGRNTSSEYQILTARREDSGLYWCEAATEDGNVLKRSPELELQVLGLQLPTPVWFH
Background: SPR reads the build-up and loss of mass on a sensor chip optically.

Assay [2] addresses T2, FcγRIa (human, UniProt P12314 16-292).
T2 construct: extracellular domain; Soluble extracellular domain with C-terminal His tag, used as analyte in Biacore; also called FcgRI; 1a; not shown: His tag attached to the C terminus
The assay can be described thus: SPR (Biacore); He/Con_1a divided by He/Con_2b (binding to FcγRIa against binding to FcγRIIb). The method, then: (§2) The heterodimerized antibodies He Abs in which one of the H chains was introduced with an alteration were assayed for their binding activities to each activating FcγR and inhibitory FcγR according to the method described in Example 4. […] The activating FcγRs in FIGS. 26, 27, 28, and 29 are FcγRIa, FcγRIIa (R), FcγRIIa (H), and FcγRIIIa, respectively.
as §1
T2 sequence (P12314 16-292): as above

For another assay, the target named is T3, FcγRIIb (human, UniProt P31994 43-217).
T3 construct: extracellular domain; Soluble extracellular domain with C-terminal His tag, used as analyte in Biacore; also called FcgRIIb; 2b; not shown: His tag attached to the C terminus
T3 sequence (looked up): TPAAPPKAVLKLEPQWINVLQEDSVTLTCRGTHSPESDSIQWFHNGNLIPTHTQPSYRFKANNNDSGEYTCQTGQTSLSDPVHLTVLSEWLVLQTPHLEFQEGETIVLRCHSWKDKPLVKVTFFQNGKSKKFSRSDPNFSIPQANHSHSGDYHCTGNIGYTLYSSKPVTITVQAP
The assay can be described thus: SPR (Biacore), antibody captured, FcγR as analyte; relative to GpH7-A5/GpH7-B3/GpL16-k0 = 100. The method, then:
as §2, §1

In assay [3] the target is T2, FcγRIa. Described as above. The method, then: as §2, §1

B1: GpH7-B3 variant Y296_19Q/GpL16-k0 (homodimerized antibody, Ho Ab) (antibody, human IgG1, kappa)
heavy: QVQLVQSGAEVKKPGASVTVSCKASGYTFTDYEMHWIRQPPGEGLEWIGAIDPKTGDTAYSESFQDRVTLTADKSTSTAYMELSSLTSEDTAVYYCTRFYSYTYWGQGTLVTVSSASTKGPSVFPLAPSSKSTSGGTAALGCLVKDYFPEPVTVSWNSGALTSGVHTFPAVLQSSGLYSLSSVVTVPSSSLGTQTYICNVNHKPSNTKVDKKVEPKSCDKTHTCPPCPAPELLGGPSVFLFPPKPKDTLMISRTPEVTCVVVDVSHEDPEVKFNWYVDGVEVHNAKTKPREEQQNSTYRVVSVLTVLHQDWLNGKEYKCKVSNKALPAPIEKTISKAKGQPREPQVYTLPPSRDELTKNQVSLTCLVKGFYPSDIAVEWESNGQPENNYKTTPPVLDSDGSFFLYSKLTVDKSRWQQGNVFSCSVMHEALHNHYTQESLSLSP
light: DIVMTQSPLSLPVTPGEPASISCQASESLVHSNRNTYLHWYLQKPGQSPQLLIYKVSNRFSGVPDRFSGSGSGTDFTLKISRVEAEDVGVYYCSQNTHVPPTFGQGTKVEIERTVAAPSVFIFPPSDEQLKSGTASVVCLLNNFYPREAKVQWKVDNALQSGNSQESVTEQDSKDSTYSLSSTLTLSKADYEKHKVYACEVTHQGLSSPVTKSFNRGEC
notes: Anti-glypican-3 IgG1 (G1d with K439E); same alteration in both H chains
Regarding B1, the Ho/Con_1a with FcγRIa [1] is 104 % of control (=100).

B2: GpH7-B3 variant Y296_18N/GpL16-k0 (homodimerized antibody, Ho Ab) (antibody, human IgG1, kappa)
heavy: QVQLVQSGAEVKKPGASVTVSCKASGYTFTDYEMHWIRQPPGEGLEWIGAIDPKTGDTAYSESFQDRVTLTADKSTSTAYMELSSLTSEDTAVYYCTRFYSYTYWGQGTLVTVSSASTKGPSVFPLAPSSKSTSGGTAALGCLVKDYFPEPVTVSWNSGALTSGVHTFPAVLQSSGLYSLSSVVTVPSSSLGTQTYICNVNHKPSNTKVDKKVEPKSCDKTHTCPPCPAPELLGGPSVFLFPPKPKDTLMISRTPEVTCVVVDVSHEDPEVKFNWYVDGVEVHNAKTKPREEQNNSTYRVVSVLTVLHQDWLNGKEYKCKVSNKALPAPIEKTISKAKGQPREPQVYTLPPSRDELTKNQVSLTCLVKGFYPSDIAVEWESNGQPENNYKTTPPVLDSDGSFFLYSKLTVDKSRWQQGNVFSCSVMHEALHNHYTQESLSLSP
light: DIVMTQSPLSLPVTPGEPASISCQASESLVHSNRNTYLHWYLQKPGQSPQLLIYKVSNRFSGVPDRFSGSGSGTDFTLKISRVEAEDVGVYYCSQNTHVPPTFGQGTKVEIERTVAAPSVFIFPPSDEQLKSGTASVVCLLNNFYPREAKVQWKVDNALQSGNSQESVTEQDSKDSTYSLSSTLTLSKADYEKHKVYACEVTHQGLSSPVTKSFNRGEC
notes: as for B1
Consider B2, for which, in the assay with FcγRIa [1], the Ho/Con_1a was 105 % of control (=100).

B3: GpH7-A5/GpH7-B3 variant S239_10E/GpL16-k0 (antibody, human IgG1, kappa)
heavy 1: not shown
heavy 2: not shown
light: DIVMTQSPLSLPVTPGEPASISCQASESLVHSNRNTYLHWYLQKPGQSPQLLIYKVSNRFSGVPDRFSGSGSGTDFTLKISRVEAEDVGVYYCSQNTHVPPTFGQGTKVEIERTVAAPSVFIFPPSDEQLKSGTASVVCLLNNFYPREAKVQWKVDNALQSGNSQESVTEQDSKDSTYSLSSTLTLSKADYEKHKVYACEVTHQGLSSPVTKSFNRGEC
notes: Heterodimerized anti-glypican-3 IgG1; alteration in the GpH7-B3 chain only; also called He Ab
B3: the “He_1a/2b (Ia/IIb)” value with FcγRIa [2] was 0.58 ratio. Moreover, the He/Con_2b with FcγRIIb is 181 % of control (=100). Further, the He/Con_1a with FcγRIa [3] was 105 % of control (=100).

B4: GpH7-B3 variant Y296_06M/GpL16-k0 (homodimerized antibody, Ho Ab) (antibody, human IgG1, kappa)
heavy: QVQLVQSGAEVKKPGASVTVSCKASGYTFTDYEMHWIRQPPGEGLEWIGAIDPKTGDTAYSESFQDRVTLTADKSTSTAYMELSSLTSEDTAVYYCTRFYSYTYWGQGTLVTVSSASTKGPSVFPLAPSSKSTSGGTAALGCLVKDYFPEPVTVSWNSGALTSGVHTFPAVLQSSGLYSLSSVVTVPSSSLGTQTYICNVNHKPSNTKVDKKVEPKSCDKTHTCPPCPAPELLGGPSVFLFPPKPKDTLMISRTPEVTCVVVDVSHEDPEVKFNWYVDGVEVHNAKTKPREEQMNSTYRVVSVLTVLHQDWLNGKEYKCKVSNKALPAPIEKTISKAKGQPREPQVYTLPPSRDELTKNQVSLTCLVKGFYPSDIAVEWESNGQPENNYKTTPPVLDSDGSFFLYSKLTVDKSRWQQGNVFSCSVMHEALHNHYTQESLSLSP
light: DIVMTQSPLSLPVTPGEPASISCQASESLVHSNRNTYLHWYLQKPGQSPQLLIYKVSNRFSGVPDRFSGSGSGTDFTLKISRVEAEDVGVYYCSQNTHVPPTFGQGTKVEIERTVAAPSVFIFPPSDEQLKSGTASVVCLLNNFYPREAKVQWKVDNALQSGNSQESVTEQDSKDSTYSLSSTLTLSKADYEKHKVYACEVTHQGLSSPVTKSFNRGEC
notes: as for B1
With B4, the Ho/Con_1a in the assay with FcγRIa [1] was 104 % of control (=100).

B5: GpH7-B3 variant T335_16H/GpL16-k0 (homodimerized antibody, Ho Ab) (antibody, human IgG1, kappa)
heavy: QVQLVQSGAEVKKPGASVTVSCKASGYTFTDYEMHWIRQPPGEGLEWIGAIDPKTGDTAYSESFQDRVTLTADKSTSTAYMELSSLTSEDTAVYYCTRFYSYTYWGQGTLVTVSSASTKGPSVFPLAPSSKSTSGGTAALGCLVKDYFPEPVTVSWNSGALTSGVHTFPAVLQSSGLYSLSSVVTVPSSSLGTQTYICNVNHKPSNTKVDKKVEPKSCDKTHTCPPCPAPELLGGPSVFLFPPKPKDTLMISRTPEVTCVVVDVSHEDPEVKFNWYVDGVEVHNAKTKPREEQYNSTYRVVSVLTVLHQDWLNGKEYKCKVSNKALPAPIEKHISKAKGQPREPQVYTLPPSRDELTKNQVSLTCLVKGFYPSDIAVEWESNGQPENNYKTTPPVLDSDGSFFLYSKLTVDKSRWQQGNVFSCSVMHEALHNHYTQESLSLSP
light: DIVMTQSPLSLPVTPGEPASISCQASESLVHSNRNTYLHWYLQKPGQSPQLLIYKVSNRFSGVPDRFSGSGSGTDFTLKISRVEAEDVGVYYCSQNTHVPPTFGQGTKVEIERTVAAPSVFIFPPSDEQLKSGTASVVCLLNNFYPREAKVQWKVDNALQSGNSQESVTEQDSKDSTYSLSSTLTLSKADYEKHKVYACEVTHQGLSSPVTKSFNRGEC
notes: as for B1
Take B5: the Ho/Con_1a with FcγRIa [1] is 104 % of control (=100).

B6: GpH7-A5/GpH7-B3 variant V266_06M/GpL16-k0 (antibody, human IgG1, kappa)
heavy 1: not shown
heavy 2: not shown
light: DIVMTQSPLSLPVTPGEPASISCQASESLVHSNRNTYLHWYLQKPGQSPQLLIYKVSNRFSGVPDRFSGSGSGTDFTLKISRVEAEDVGVYYCSQNTHVPPTFGQGTKVEIERTVAAPSVFIFPPSDEQLKSGTASVVCLLNNFYPREAKVQWKVDNALQSGNSQESVTEQDSKDSTYSLSSTLTLSKADYEKHKVYACEVTHQGLSSPVTKSFNRGEC
notes: as for B3
As to B6, the “He_1a/2b (Ia/IIb)” value in the assay with FcγRIa [2] was found to be 0.4 ratio. Also, the He/Con_2b with FcγRIIb was 251 % of control (=100). The He/Con_1a with FcγRIa [3] was 99.7 % of control (=100).

B7: GpH7-B3 variant T335_20W/GpL16-k0 (homodimerized antibody, Ho Ab) (antibody, human IgG1, kappa)
heavy: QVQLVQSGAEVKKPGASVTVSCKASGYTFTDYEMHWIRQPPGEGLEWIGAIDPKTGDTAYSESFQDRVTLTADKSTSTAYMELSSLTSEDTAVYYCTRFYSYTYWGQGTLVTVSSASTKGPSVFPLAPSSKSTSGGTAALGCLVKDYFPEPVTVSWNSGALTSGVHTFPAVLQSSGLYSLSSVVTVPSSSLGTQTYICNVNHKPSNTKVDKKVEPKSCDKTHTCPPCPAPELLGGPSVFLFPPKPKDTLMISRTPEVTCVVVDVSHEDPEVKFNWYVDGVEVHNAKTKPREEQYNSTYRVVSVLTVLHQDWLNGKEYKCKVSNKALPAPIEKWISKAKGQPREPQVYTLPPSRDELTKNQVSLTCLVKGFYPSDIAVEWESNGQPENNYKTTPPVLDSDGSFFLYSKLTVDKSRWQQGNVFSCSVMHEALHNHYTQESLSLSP
light: DIVMTQSPLSLPVTPGEPASISCQASESLVHSNRNTYLHWYLQKPGQSPQLLIYKVSNRFSGVPDRFSGSGSGTDFTLKISRVEAEDVGVYYCSQNTHVPPTFGQGTKVEIERTVAAPSVFIFPPSDEQLKSGTASVVCLLNNFYPREAKVQWKVDNALQSGNSQESVTEQDSKDSTYSLSSTLTLSKADYEKHKVYACEVTHQGLSSPVTKSFNRGEC
notes: as for B1
B7: in the assay with FcγRIa [1], the Ho/Con_1a is 104 % of control (=100).

B8: GpH7-B3 variant Y296_11K/GpL16-k0 (homodimerized antibody, Ho Ab) (antibody, human IgG1, kappa)
heavy: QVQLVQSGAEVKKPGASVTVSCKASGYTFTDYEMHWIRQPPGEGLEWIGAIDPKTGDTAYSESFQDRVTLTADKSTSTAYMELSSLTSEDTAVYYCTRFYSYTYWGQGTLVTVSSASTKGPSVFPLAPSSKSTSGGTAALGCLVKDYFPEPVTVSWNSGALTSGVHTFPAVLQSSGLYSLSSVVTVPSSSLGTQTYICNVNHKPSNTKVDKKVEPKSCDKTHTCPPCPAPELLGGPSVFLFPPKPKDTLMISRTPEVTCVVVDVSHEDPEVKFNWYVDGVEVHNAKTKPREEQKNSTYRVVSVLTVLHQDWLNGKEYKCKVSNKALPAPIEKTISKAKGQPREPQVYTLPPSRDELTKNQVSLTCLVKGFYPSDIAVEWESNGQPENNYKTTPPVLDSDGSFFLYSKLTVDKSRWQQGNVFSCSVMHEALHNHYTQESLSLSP
light: DIVMTQSPLSLPVTPGEPASISCQASESLVHSNRNTYLHWYLQKPGQSPQLLIYKVSNRFSGVPDRFSGSGSGTDFTLKISRVEAEDVGVYYCSQNTHVPPTFGQGTKVEIERTVAAPSVFIFPPSDEQLKSGTASVVCLLNNFYPREAKVQWKVDNALQSGNSQESVTEQDSKDSTYSLSSTLTLSKADYEKHKVYACEVTHQGLSSPVTKSFNRGEC
notes: as for B1
For the molecule B8, the Ho/Con_1a in the assay with FcγRIa [1] is 102 % of control (=100).

B9: GpH7-B3 variant Y296_13S/GpL16-k0 (homodimerized antibody, Ho Ab) (antibody, human IgG1, kappa)
heavy: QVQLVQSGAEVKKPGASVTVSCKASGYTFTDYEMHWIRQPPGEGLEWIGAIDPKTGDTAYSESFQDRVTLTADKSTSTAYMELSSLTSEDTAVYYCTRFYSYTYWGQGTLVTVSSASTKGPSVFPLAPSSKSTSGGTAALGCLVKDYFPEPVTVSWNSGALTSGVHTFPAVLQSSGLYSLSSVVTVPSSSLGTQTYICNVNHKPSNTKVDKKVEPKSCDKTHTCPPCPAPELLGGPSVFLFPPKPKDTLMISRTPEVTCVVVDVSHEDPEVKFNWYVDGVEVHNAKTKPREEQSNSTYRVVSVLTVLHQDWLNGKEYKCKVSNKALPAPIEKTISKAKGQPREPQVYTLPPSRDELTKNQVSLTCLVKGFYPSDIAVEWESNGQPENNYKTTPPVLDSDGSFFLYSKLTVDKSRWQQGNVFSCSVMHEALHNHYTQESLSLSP
light: DIVMTQSPLSLPVTPGEPASISCQASESLVHSNRNTYLHWYLQKPGQSPQLLIYKVSNRFSGVPDRFSGSGSGTDFTLKISRVEAEDVGVYYCSQNTHVPPTFGQGTKVEIERTVAAPSVFIFPPSDEQLKSGTASVVCLLNNFYPREAKVQWKVDNALQSGNSQESVTEQDSKDSTYSLSSTLTLSKADYEKHKVYACEVTHQGLSSPVTKSFNRGEC
notes: as for B1
Take B9: the Ho/Con_1a with FcγRIa [1] is 105 % of control (=100).
